From paper doi:10.1101/586461 (bioRxiv, 2019)

What was measured:
[1] = biological target: the molecule itself; experiment: negative stain EM
[2] = biological target: the molecule itself; experiment: cryo-electron tomography

| Protein | binding result [1] | binding result [2] |
| --- | --- | --- |
| non-tagged human dynamin 1 (hDyn1) (natural protein) MGNRGMEDLIPLVNRLQDAFSAIGQNADLDLPQIAVVGGQSAGKSSVLENFVGRDFLPRGSGIVTRRPLVLQLVNATTEYAEFLHCKGKKFTDFEEVRLEIEAETDRVTGTNKGISPVPINLRVYSPHVLNLTLVDLPGMTKVPVGDQPPDIEFQIRDMLMQFVTKENCLILAVSPANSDLANSDALKVAKEVDPQGQRTIGVITKLDLMDEGTDARDVLENKLLPLRRGYIGVVNRSQKDIDGKKDITAALAAERKFFLSHPSYRHLADRMGTPYLQKVLNQQLTNHIRDTLPGLRNKLQSQLLSIEKEVEEYKNFRPDDPARKTKALLQMVQQFAVDFEKRIEGSGDQIDTYELSGGARINRIFHERFPFELVKMEFDEKELRREISYAIKNIHGIRTGLFTPDMAFETIVKKQVKKIREPCLKCVDMVISELISTVRQCTKKLQQYPRLREEMERIVTTHIREREGRTKEQVMLLIDIELAYMNTNHEDFIGFANAQQRSNQMNKKKTSGNQDEILVIRKGWLTINNIGIMKGGSKEYWFVLTAENLSWYKDDEEKEKKYMLSVDNLKLRDVEKGFMSSKHIFALFNTEQRNVYKDYRQLELACETQEEVDSWKASFLRAGVYPERVGDKEKASETEENGSDSFMHSMDPQLERQVETIRNLVDSYMAIVNKTVRDLMPKTIMHLMINNTKEFIFSELLANLYSCGDQNTLMEESAEQAQRRDEMLRMYHALKEALSIIGDINTTTVSTPMPPPVDDSWLQVQSVPAGRRSPTSSPTPQRRAPAVPPARPGSRGPAPGPPPAGSALGGAPPVPSRPGASPDPFGPPPQVPSRPNRAPPGVPSRSGQASPSRPESPRPPFDL | binds |  |
| N-terminal His-tagged human dynamin 1 (hDyn1) (natural protein) MGNRGMEDLIPLVNRLQDAFSAIGQNADLDLPQIAVVGGQSAGKSSVLENFVGRDFLPRGSGIVTRRPLVLQLVNATTEYAEFLHCKGKKFTDFEEVRLEIEAETDRVTGTNKGISPVPINLRVYSPHVLNLTLVDLPGMTKVPVGDQPPDIEFQIRDMLMQFVTKENCLILAVSPANSDLANSDALKVAKEVDPQGQRTIGVITKLDLMDEGTDARDVLENKLLPLRRGYIGVVNRSQKDIDGKKDITAALAAERKFFLSHPSYRHLADRMGTPYLQKVLNQQLTNHIRDTLPGLRNKLQSQLLSIEKEVEEYKNFRPDDPARKTKALLQMVQQFAVDFEKRIEGSGDQIDTYELSGGARINRIFHERFPFELVKMEFDEKELRREISYAIKNIHGIRTGLFTPDMAFETIVKKQVKKIREPCLKCVDMVISELISTVRQCTKKLQQYPRLREEMERIVTTHIREREGRTKEQVMLLIDIELAYMNTNHEDFIGFANAQQRSNQMNKKKTSGNQDEILVIRKGWLTINNIGIMKGGSKEYWFVLTAENLSWYKDDEEKEKKYMLSVDNLKLRDVEKGFMSSKHIFALFNTEQRNVYKDYRQLELACETQEEVDSWKASFLRAGVYPERVGDKEKASETEENGSDSFMHSMDPQLERQVETIRNLVDSYMAIVNKTVRDLMPKTIMHLMINNTKEFIFSELLANLYSCGDQNTLMEESAEQAQRRDEMLRMYHALKEALSIIGDINTTTVSTPMPPPVDDSWLQVQSVPAGRRSPTSSPTPQRRAPAVPPARPGSRGPAPGPPPAGSALGGAPPVPSRPGASPDPFGPPPQVPSRPNRAPPGVPSRSGQASPSRPESPRPPFDL |  | binds |
| Drosophila dynamin Shibire (Shi), wild type (natural protein) MDSLITIVNKLQDAFTSLGVHMQLDLPQIAVVGGQSAGKSSVLENFVGKDFLPRGSGIVTRRPLILQLINGVTEYGEFLHIKGKKFSSFDEIRKEIEDETDRVTGSNKGISNIPINLRVYSPHVLNLTLIDLPGLTKVAIGDQPVDIEQQIKQMIFQFIRKETCLILAVTPANTDLANSDALKLAKEVDPQGVRTIGVITKLDLMDEGTDARDILENKLLPLRRGYIGVVNRSQKDIEGRKDIHQALAAERKFFLSHPSYRHMADRLGTPYLQRVLNQQLTNHIRDTLPGLRDKLQKQMLTLEKEVEEFKHFQPGDASIKTKAMLQMIQQLQSDFERTIEGSGSALVNTNELSGGAKINRIFHERLRFEIVKMACDEKELRREISFAIRNIHGIRVGLFTPDMAFEAIVKRQIALLKEPVIKCVDLVVQELSVVVRMCTAKMSRYPRLREETERIITTHVRQREHSCKEQILLLIDFELAYMNTNHEDFIGFANAQNKSENANKTGTRQLGNQVIRKGHMVIQNLGIMKGGSRPYWFVLTSESISWYKDEDEKEKKFMLPLDGLKLRDIEQGFMSMSRRVTFALFSPDGRNVYKDYKQLELSCETVEDVESWKASFLRAGVYPEKQETQENGDESASEESSSDPQLERQVETIRNLVDSYMKIVTKTTRDMVPKAIMMLIINNAKDFINGELLAHLYASGDQAQMMEESAESATRREEMLRMYRACKDALQIIGDVSMATVSSPLPPPVKNDWLPSGLDNPRLSPPSPGGVRGKPGPPAQSSLGGRNPPLPPSTGRPAPAIPNRPGGGAPPLPGGRPGGSLPPPMLPSRVSGAVGGAIVQQSGANRYVPESMRGQVNQAVGQAAINELSNAFSSRFK |  | binds |
